Measured values: patent publication US20130231277A1

Target: FGFR1c endogenously expressed by HEK293 cells transiently transfected with murine βKlotho (UniProt P11362)
Assay: cell-based or functional assay

FGFR1c endogenously expressed by HEK293 cells transiently transfected with murine βKlotho, sequence (P11362 22-822): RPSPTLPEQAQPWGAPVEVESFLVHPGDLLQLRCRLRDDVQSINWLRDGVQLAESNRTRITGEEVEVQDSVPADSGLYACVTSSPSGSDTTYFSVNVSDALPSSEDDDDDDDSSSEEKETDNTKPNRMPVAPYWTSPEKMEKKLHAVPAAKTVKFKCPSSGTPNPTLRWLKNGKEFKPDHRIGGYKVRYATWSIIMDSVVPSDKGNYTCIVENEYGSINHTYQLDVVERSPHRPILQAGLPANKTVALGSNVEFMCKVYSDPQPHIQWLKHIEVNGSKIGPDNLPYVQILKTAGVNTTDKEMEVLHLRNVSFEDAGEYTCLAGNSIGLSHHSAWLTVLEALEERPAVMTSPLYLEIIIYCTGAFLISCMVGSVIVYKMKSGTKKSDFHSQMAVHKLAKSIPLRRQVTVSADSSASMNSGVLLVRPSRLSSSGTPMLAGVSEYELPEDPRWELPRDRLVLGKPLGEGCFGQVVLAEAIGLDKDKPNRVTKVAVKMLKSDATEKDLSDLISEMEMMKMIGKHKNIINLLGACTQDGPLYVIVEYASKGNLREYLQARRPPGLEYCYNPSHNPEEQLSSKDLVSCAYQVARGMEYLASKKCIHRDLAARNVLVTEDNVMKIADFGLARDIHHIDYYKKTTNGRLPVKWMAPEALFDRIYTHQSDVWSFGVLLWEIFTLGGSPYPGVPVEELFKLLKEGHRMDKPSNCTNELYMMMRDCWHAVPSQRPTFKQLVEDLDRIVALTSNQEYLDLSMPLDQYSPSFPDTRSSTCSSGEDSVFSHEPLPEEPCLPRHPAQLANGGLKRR

With “Q104M single mutant of human FGF21 (SEQ ID NO: 152) (from UniProt Q9NSA1 29-209) (ligand)” the Induction of Egr1 protein expression (immunoblot, HEK293 cells co-expressing FGFR1c and βKlotho) was 30 ng/mL.
